Laboratory results published in paper PMC9976466, “Insights into the structure-function relationship of the NorQ/NorD chaperones from Paracoccus denitrificans reveal shared principles of interacting MoxR AAA+/VWA domain proteins” (BMC Biology, 2023).
Where a chain is given by its changes, count along the chain named. Names and notes keep the numbering of the source. Values joined by “and” are separate entries in the source; they are usually repeats but may differ in a detail not shown here. Equal entries are not always repeated. Values belong to the molecule of their own block, whether it stands above or below them.

Key:
NorQ = target: T1, NorQ (Paracoccus denitrificans, UniProt Q51664, E109Q); assay: Blue Native PAGE, ATP-induced shift to hexamer; format: binding; details: 2 mM ATP, 20 mM MgCl2; Walker B variant, ATPase activity lost
T1 construct: full length, N-terminal 6-His tag (pET-hQ), expressed in E. coli BL21(DE3); ~30 kDa monomer, several oligomeric states up to hexamer

[1] = target: 6-His-tagged NorD (Paracoccus denitrificans); assay: native gel or EMSA; BN-PAGE of purified NorQ^WBD (~10 μg per lane) after addition of ATP
[2] = target: the molecule itself; assay: as above
[3] = target: the molecule itself; assay: native gel or EMSA + SEC; BN-PAGE (NativePAGE 4-16% Bis-Tris, 4 °C) of purified NorQ (14 μg) and NorQ^WB (18 μg), with 2 mM ATP and 20 mM MgCl2 in Fig. 2b; SEC on Superdex 200 in 20 mM TRIS/HCl pH 8, 300 mM NaCl, 10% glycerol

Molecule: Nc1ncnc2c1ncn2[C@@H]1O[C@H](COP(=O)(O)OP(=O)(O)OP(=O)(O)O)[C@@H](O)[C@H]1O [ATP]
Blue Native PAGE, ATP-induced shift to hexamer (NorQ): clear shifting of the oligomerization state to the hexamer (Fig. 2b) for the NorQ^WB

stoichiometry N [1]: 3
B1: untagged NorQ^WB (E109Q), co-expressed with 6-His-tagged NorD (enzyme, Paracoccus denitrificans, UniProt Q51664 1-270, looked up)
chain: MNAHVKTQGNGAVDAPFYLPQGDEVAVFEAAAANDLPVLLKGPTGCGKTRFVAHMAARLGRPLYTVACHDDLSAADLIGRYLLKGGETVWTDGPLTRAVREGAICYLDQVVEARKDVTVVLHPLTDDRRILPIDRTGEEIEAAPGFMLVASYNPGYQNILKTLKPSTRQRFVAMEFDFPEPAREVEIVARESGLDRDRTLGLVRLAGKIRGLKGQDLEEGVSTRLVVYAASLTRRGMNLDRAIEAAMIEPLTDDAEVKRGLRDLAAAIFG
notes: NorQ of Paracoccus denitrificans, Uniprot Q51663, Walker B variant; the norQ gene was cloned into a pET21a backbone with the T7 RBS; Hexameric within the NorQ^WBD complex (BN-PAGE, cryo-EM); trimer to hexamer after addition of ATP; also called NorQ^WB (in NorQ^WBD; Q^WBD)
stoichiometry N [2]: 3

B2: wildtype 6-His-tagged NorQ (enzyme, Paracoccus denitrificans, UniProt Q51664 1-270, looked up)
chain: B1 chain with Q109E
notes: NorQ, MoxR-class AAA+ ATPase of Paracoccus denitrificans, Uniprot Q51663; the norQ gene was cloned into a pET21a backbone; about 30 kDa; Expressed without NorD; Forms several oligomeric states from monomer to hexamer; source: dialysis
stoichiometry N [3]: 6 and 3 and 4 and 5
